34 variants from the RNAGym collection of RNA variant scans (doi:10.1093/nar/gkz1192) can be followed below.

First the molecules themselves.
B1: CPEB3 Ribozyme (parent)
chain: UAACAGGGGGCCACAGCAGAAGCGUUCACGUCGCAGCCCCUGUCAGAUUCUGGUGAAUCUGCGAAUUCUGCUGUAUAUCUC

The variants in the data set derive from B1. Briefly: self-cleavage, relative activity (ratio to wild type); higher = more cleavage; in vitro, sequencing. The method in brief: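 Libraries of CPEB3 self-cleaving ribozyme mutants came from rounds of error-prone PCR and carried barcodes, which DNA sequencing matched to variants. In vitro transcription used T7 RNA polymerase at 37°C for 5 hours, with a further 15 min in DNase I before EDTA stopped the reaction; the ribozymes cleaved during both steps. The RNA was reverse transcribed with template switching and sequenced on Illumina. Relative activity is the cleaved/total read fraction of a variant divided by that of the unmutated ribozyme, averaged over three batches with at least 5 reads.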
Take UAACAGGGGGCCUCAGCAGAAGCGUUCACGUCGCAGCCCCUGUCAGAUUCUGGUGAAUCUGCGAAUUCCGCUGUAUAUCUC: the self-cleavage worked out at 0.71. Take UAACAGGGGGCCACAGCAGAAGCCUUCACGUCGCAGCCCCUGUCAGAUUCUGGUGAAUCUGCGAAUUCUGCGGUAUAUCUC: the self-cleavage was found to be 0.2. UAACAGGGGGCCACAGCAGAAGCGUUCAUGUCGCAGCCCCUGUCAGAUUCUGGUGAAUCCGCGAAUUCUGCUGUAUAUCUC: the self-cleavage was determined as 0.24. As to UAACAGGGGGCCACAGCAGAAGCGUUCACGUCGCAGCCCCUGGCAGAUUCUGGUGAAUCUGCGAAUUCUACUGUAUAUCUC, the self-cleavage worked out at 0.34.

As for UAACAGGGGGCCACAGCAGAAGCGUUCACGUCGCAGCCCCUGUUAGAUUCUGGUGAAUCUGCGAAUUCUGCUGUAAAUCUC, the self-cleavage came to 0.14. Turning to UUACAGGGGGCCACAGCAGAAGCGUUCACGUCGCAGCCCCUGUCAGAUUCUGGUGAACCUGCGAAUUCUGCUGUAUAUCUC, the self-cleavage was 0.42. As to UAACAGGGGGCCACCGCAGAAGCGUUCACGUCGCAGCCCCUGUCAGAUUCUGGUGAAUCUGCGAAUUCUGCUGUAUAACUC, the self-cleavage is 1.05. As for UAACAGGGGGCCACAGCAGAAGCGUUCACGUCGCAGCCCCUGUCAGAUUCUGGUUAAUCUGCGAAUUCUGCUGCAUAUCUC, the self-cleavage was 1.35. The figure for UAACAGGGGGCCACAGCAGAAGCGAUCACGUCGCAGCCCCUGUCAGAUUCUGGUGAAUCUGCGAAUUAUGCUGUAUAUCUC is 0.19; for UAACAGGGGGCCACAGCAGAGGCGUUCACGUCGCAGCCCCUGUCAGAUUCUGGUGAAUCUGCGAAUUCUGCUGUAGAUCUC it is 0.66; for UAACAGGGGGCCACAGCACAAGCGUUCUCGUCGCAGCCCCUGUCAGAUUCUGGUGAAUCUGCGAAUUCUGCUGUAUAUCUC it is 0.07.

As to UAACAGGGGGCCACAGCAGAAGCGUUCACGUCGCAGCCCCUGUCCGAUUCUGGUGAAUCUGCGAAUUCUGCUGCAUAUCUC, the self-cleavage came out at 0.7. As for UAACAGGGGGCCACAGCAGAAGCGUUCACGCCGCAGCCCCUGUCAGAUUCCGGUGAAUCUGCGAAUUCUGCUGUAUAUCUC, the figure is 0.78; as for UAACAGGGGGCCACAGCAGAAGCGUUCACGUUGCAGCCACUGUCAGAUUCUGGUGAAUCUGCGAAUUCUGCUGUAUAUCUC, 0.15. In the case of UAACAGGGGGCCACAGCAGAAGCGUUCGCGUCGCAGCCCCUGUCAGAUUCUAGUGAAUCUGCGAAUUCUGCUGUAUAUCUC, the self-cleavage was 0.76. As for UAACAGGGGGCCACAGCAGAAGCGUUCACGUCGCAGCCACUGUCAGAUUCUGGUGAAUCUGCGAAUUGUGCUGUAUAUCUC, the figure is 0.17; as for UAACAAGGGGCCACAGCAGAAGCGUUCACGUCGCUGCCCCUGUCAGAUUCUGGUGAAUCUGCGAAUUCUGCUGUAUAUCUC, 0.26. The figure for UAACAGGGGACCACAGCAGAAGCGUUCACGUCGCAGCCCCUGUCGGAUUCUGGUGAAUCUGCGAAUUCUGCUGUAUAUCUC is 0.22; for UAACAGGGGGCCACAGCAGAAGCGCUCACGUCGCAGCCCCUGUCAGAUUCUGGUGAAUCUGCGAAUUCUGCUGCAUAUCUC it is 0.35; for UAACAGGGGGCCACAGCAGAAGCGUUCACGUCGCAGCCCCUGUCAGAUUCUGGUGAUUCUGCGAAUUCUGCUGUAUACCUC it is 0.68. Consider UAACAGGGGGCCACAGCAGAAGCGUUCACGUCGCAGCCCCUGUCAGAUUCUGGUGAAUCUGCGAAUUCUGCAGUUUAUCUC, for which the self-cleavage amounted to 1.22. As for UAACAGGGGGCCACAGCAGAAGCGUUCACGUCGCAGCCCCUGUCAGAUUCUGGUGAACCUGCGAAUUCUGCAGUAUAUCUC, the figure is 0.39; as for UAACAGGGGGCCACAGCAGAAGCGUUCUCGUCGCAGCCCCUGUCAGAUUCAGGUGAAUCUGCGAAUUCUGCUGUAUAUCUC, 0.77; as for UAACAGGGGGCCACAGCAGAAGCGUUGACGUCGCAGCCCCUGUCAGAUUCUGGUGGAUCUGCGAAUUCUGCUGUAUAUCUC, 0.14. The figure for UAACAGGGGGCCACAGCAGAAGCGUUCACGUCGCAUCCCCUGUCAGAUUCUGGUGAAUCUGCGAGUUCUGCUGUAUAUCUC is 0.39. For the variant UAACAGGGAGCCACAGCAGAAGCGUUCACGUCGCAGCCCCUGUCAGAUUCUGGUGAAUCUGCGAAUCCUGCUGUAUAUCUC, the self-cleavage turned out to be 0.08. As for UAACAGGGGGCCACAGCAGCAGCGUUCACGUCGCAGUCCCUGUCAGAUUCUGGUGAAUCUGCGAAUUCUGCUGUAUAUCUC, the figure is 0.13. As for UAACAGGGGGCCACAGCAGAAGCGUUCACGUCGCAGCCCCCGUCAGAUUCUUGUGAAUCUGCGAAUUCUGCUGUAUAUCUC, the figure is 1.03; as for UAACAGGGGGCCACAGCAGUAGCGUUCACGUCGCAGCCCCUAUCAGAUUCUGGUGAAUCUGCGAAUUCUGCUGUAUAUCUC, 0.64.

UAACAGGGGGCCAAAGCAGAAGCGUUCACGUCGCAGCCCCUAUCAGAUUCUGGUGAAUCUGCGAAUUCUGCUGUAUAUCUC: the self-cleavage amounted to 0.09. The figure for UAACAGGGGGCCACAGCAGAAGCGUUCACGUCGCAGCCCCUGUCAGAUUCUGGUGAACCUGGGAAUUCUGCUGUAUAUCUC is 0.27; for UAACAGGGGGCCACAGCGGAAGCGUUCACGUCGCAGCCCCUGUCAGAUUCUGGUGAAUCUGCGAAUUCUACUGUAUAUCUC it is 0.37; for UAACAGGGGGCCACAGCAGAAGCGUUCACGCCGCCGCCCCUGUCAGAUUCUGGUGAAUCUGCGAAUUCUGCUGUAUAUCUC it is 0.46. As to UAACAGGGGGCCACAGCAGAAGCGUUCACGUCGCAGCCCCUGUCAGAUUAUGGUGAAUCUGCGAAUUCUGCUGUAUACCUC, the self-cleavage was determined as 0.71.
